Data published in paper PMC8034618.

Assays:
Experiment in all cases: EMSA
[1] = test system: LARP1 665-947 cluster 6 full phosphomimetic (10 sites) (Homo sapiens); settings: tRNA and BSA competitors; stated 4.99-fold reduction; m7Gppp cap; EMSA: 20 mM Tris-HCl pH 8, 150 mM NaCl, 10% glycerol, 1 mM DTT, 0.5 ug tRNA, 1 ug BSA in …; on ice 30 min; 7-8% native 0.5x TBE gel at 4 C; RNA <=200 pM
[2] = test system: LARP1 665-947 cluster 6 partial phosphomimetic (5 sites) (Homo sapiens); settings: tRNA and BSA competitors; m7Gppp cap; EMSA: 20 mM Tris-HCl pH 8, 150 mM NaCl, 10% glycerol, 1 mM DTT, 0.5 ug tRNA, 1 ug BSA in 10 ul; on ice 30 min; 7-8% native 0.5x TBE gel at 4 C; RNA <=200 pM
[3] = test system: LARP1 796-1019 cluster 7 phosphomimetic (Homo sapiens); settings: tRNA and BSA competitors; enhanced relative to WT 796-1019; m7Gppp cap; EMSA: 20 mM Tris-HCl pH 8, 150 mM NaCl, 10% glycerol, 1 mM DTT, 0.5 ug tRNA, 1 ug BSA in 10 ul; on ice 30 min; 7-8% native 0.5x TBE gel at 4 C; RNA <=200 pM

For m7G-RPS6-UTR (capped RPS6 20-mer), which Kd [1] is on record?
Its Kd is 2840 nM.

What about the Kd [2] of the same substance?
The Kd was 902 nM.

What about the Kd [3] of the same substance?
Its Kd is 44 nM.
